Laboratory results taken from PMC6639074 (eLife, 2019).

Molecular target: T1, GFP-FLAG-STAMBPL1 (human, UniProt Q96FJ0 1-436)
T1 construct: STAMBPL1, human, amplified from FLAG-HA-STAMBPL1; GAGAGA linker between GFP and FLAG; also called GFP-STAMBPL1; recombinant STAMBPL1; source: HEK293T, transfected, purified (FLAG M2 resin, 3X FLAG peptide); MEFs, transfected (relocation imaging); not shown: GFP, N-terminal, kept; FLAG, N-terminal, kept
T1 sequence (looked up): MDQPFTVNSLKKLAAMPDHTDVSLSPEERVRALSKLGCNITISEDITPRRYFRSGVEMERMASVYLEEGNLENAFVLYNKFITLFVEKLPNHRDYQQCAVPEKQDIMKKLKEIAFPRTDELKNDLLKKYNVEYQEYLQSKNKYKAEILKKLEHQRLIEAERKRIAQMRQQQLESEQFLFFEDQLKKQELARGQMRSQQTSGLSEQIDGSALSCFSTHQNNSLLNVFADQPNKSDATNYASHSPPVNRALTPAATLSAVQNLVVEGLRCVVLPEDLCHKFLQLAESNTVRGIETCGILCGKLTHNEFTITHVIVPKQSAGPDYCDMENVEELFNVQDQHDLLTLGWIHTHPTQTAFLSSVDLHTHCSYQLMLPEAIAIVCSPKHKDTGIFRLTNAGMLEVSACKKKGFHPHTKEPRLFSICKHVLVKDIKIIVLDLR
Experiment: pull-down; purified GFP-FLAG-STAMBPL1 applied to GST-Rab beads with 100 uM GppNHp or GDP, 4 C, 2 hr, high salt elution, Coomassie stained gel
Conditions: both partners purified

- binding result: binds
B1: GST-Rab2A(Q65L) (natural protein, human, UniProt P61019 1-212, looked up)
chain: MAYAYLFKYIIIGDTGVGKSCLLLQFTDKRFQPVHDLTIGVEFGARMITIDGKQIKLQIWDTAGLESFRSITRSYYRGAAGALLVYDITRRDTFNHLTTWLEDARQHSNSNMVIMLIGNKSDLESRREVKKEEGEAFAREHGLIFMETSAKTASNVEEAFINTAKEIYEKIQEGVFDINNEANGIKIGPQHAATNATHAGNQGGQQAGGGCC
notes: with GppNHp; also called GST-Rab2A QL; recombinant Rab2A
